The values below come from publication PMC2174230 (The Journal of Cell Biology, 1999).

This experiment deals with T1, GST-Kap122p (S. cerevisiae, UniProt P32767 1-1081).
T1 sequence: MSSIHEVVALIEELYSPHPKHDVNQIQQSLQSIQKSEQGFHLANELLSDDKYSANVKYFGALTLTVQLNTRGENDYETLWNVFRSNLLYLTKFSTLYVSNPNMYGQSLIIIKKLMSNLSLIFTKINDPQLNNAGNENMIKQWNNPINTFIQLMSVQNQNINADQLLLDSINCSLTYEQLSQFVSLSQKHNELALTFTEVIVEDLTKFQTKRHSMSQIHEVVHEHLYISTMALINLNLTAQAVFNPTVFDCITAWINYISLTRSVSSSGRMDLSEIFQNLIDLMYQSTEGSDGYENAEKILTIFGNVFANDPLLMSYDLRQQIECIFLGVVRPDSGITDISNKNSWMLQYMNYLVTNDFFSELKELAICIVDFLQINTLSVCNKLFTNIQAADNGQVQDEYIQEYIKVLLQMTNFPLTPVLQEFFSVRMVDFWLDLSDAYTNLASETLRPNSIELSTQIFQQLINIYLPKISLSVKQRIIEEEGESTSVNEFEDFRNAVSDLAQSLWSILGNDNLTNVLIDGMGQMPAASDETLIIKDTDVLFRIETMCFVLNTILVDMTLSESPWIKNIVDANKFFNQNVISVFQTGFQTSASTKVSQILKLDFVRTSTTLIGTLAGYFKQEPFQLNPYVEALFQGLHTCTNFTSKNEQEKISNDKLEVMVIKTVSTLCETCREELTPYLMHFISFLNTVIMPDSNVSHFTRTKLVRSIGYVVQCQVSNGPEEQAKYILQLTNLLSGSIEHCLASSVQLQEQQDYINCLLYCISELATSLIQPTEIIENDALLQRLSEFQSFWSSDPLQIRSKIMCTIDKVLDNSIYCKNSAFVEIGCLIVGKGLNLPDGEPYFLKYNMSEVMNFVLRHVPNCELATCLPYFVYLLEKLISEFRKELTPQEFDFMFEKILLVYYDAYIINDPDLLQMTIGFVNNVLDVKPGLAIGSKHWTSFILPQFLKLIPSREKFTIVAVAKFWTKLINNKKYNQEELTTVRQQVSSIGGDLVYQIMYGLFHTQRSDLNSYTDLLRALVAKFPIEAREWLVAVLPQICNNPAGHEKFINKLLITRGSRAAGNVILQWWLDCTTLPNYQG
As to the kind of experiment: pull-down.

B1: His6-Toa1p/Toa2p complex (recombinant TFIIA) (complex)
chain 1: MSNAEASRVYEIIVESVVNEVREDFENAGIDEQTLQDLKNIWQKKLTETKVTTFSWDNQFNEGNINGVQNDLNFNLATPGVNSSEFNIKEENTGNEGLILPNINSNNNIPHSGETNINTNTVEATNNSGATLNTNTSGNTNADVTSQPKIEVKPEIELTINNANITTVENIDDESEKKDDEEKEEDVEKTRKEKEQIEQVKLQAKKEKRSALLDTDEVGSELDDSDDDYLISEGEEDGPDENLMLCLYDKVTRTKARWKCSLKDGVVTINRNDYTFQKAQVEAEWV
chain 2: MAVPGYYELYRRSTIGNSLVDALDTLISDGRIEASLAMRVLETFDKVVAETLKDNTQSKLTVKGNLDTYGFCDDVWTFIVKNCQVTVEDSHRDASQNGSGDSQSVISVDKLRIVACNSKKSE
As to B1, the binding result is recorded as “binds”.
